Reference: publication PMC7311918

Target: SARS-CoV-2 S 2P trimer (S ectodomain, residues 16-1206) (SARS-CoV-2) (UniProt P0DTC2)
Assay: SEC-MALS

With “SARS-CoV-2 S 2P trimer (S ectodomain, residues 16-1206) (from UniProt P0DTC2 16-1206) (natural protein)” as the substance, how does the stoichiometry N read?
Its stoichiometry N is 3.
